The record followed here is US20220324969A1 (MYTHIC THERAPEUTICS, published 2022).

For the experiment, the target named is CD33 (Sino Biological, Cat #12238-H08H) (UniProt P20138 18-259). Put plainly: BLI, IgG captured on anti-human Fc sensor, 50 nM CD33, pH 7.4 vs pH 5.4. In general terms: Biolayer interferometry detects binding as a change in optical thickness at a sensor tip.
Sequence of CD33 (Sino Biological, Cat #12238-H08H) (P20138 18-259 limits assumed): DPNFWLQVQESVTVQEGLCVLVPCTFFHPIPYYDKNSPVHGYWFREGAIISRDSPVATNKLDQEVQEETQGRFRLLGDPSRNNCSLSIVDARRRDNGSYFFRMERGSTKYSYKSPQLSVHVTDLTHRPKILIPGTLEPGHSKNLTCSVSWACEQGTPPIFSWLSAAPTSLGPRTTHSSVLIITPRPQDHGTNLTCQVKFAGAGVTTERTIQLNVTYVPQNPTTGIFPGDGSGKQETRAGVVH

B1: MYT1338 (antibody, V domains shown)
VH: QVQLVQSGAEVKKPGASVKVSCKASGYTHTNYDINWVRQAPGQGLEWIGWIYPGDGSTKYNEKFKAKATLTADTSTSTAYMELRSLRSDDTAVYYCASGYEDAMDYWGQGTTVTVSS
VL: DIQMTQSPSSLSASVGDRVTINCKASQDINSYLSWFQQKPGKAPKTLIYRANRLVDGVPSRFSGSGSGQDYTLTISSLQPEDFATYYCLQYDEFPLTFGGGTKVEIK
notes: IgG; vadastuximab VH variant #4 (F29H)
Regarding B1, the binding result is “binds”.

B2: MYT1345 (antibody, V domains shown)
VH: QVQLVQSGAEVKKPGASVKVSCKASGYTFTNYDINWVRQAPGQGLEWIGHIYPGDGSTKYNEKFKAKATLTADTSTSTAYMELRSLRSDDTAVYYCASGYEDAMDYWGQGTTVTVSS
VL: DIQMTQSPSSLSASVGDRVTINCKASQDINSYLSWFQQKPGKAPKTLIYRANRLVDGVPSRFSGSGSGQDYTLTISSLQPEDFATYYCLQYDEFPLTFGGGTKVEIK
notes: IgG; vadastuximab VH variant #11 (W50H)
Regarding B2, the binding result was “binds”.

B3: MYT1352 (antibody, V domains shown)
VH: QVQLVQSGAEVKKPGASVKVSCKASGYTFTNYDINWVRQAPGQGLEWIGWIYPGDGHTKYNEKFKAKATLTADTSTSTAYMELRSLRSDDTAVYYCASGYEDAMDYWGQGTTVTVSS
VL: DIQMTQSPSSLSASVGDRVTINCKASQDINSYLSWFQQKPGKAPKTLIYRANRLVDGVPSRFSGSGSGQDYTLTISSLQPEDFATYYCLQYDEFPLTFGGGTKVEIK
notes: IgG; vadastuximab VH variant #18 (S57H)
For the molecule B3, the binding result is given as “binds”.

B4: MYT1351 (antibody, V domains shown)
VH: QVQLVQSGAEVKKPGASVKVSCKASGYTFTNYDINWVRQAPGQGLEWIGWIYPGDHSTKYNEKFKAKATLTADTSTSTAYMELRSLRSDDTAVYYCASGYEDAMDYWGQGTTVTVSS
VL: DIQMTQSPSSLSASVGDRVTINCKASQDINSYLSWFQQKPGKAPKTLIYRANRLVDGVPSRFSGSGSGQDYTLTISSLQPEDFATYYCLQYDEFPLTFGGGTKVEIK
notes: IgG; vadastuximab VH variant #17 (G56H)
In the case of B4, the binding result was “binds”.

B5: MYT1356 (antibody, V domains shown)
VH: QVQLVQSGAEVKKPGASVKVSCKASGYTFTNYDINWVRQAPGQGLEWIGWIYPGDGSTKYHEKFKAKATLTADTSTSTAYMELRSLRSDDTAVYYCASGYEDAMDYWGQGTTVTVSS
VL: DIQMTQSPSSLSASVGDRVTINCKASQDINSYLSWFQQKPGKAPKTLIYRANRLVDGVPSRFSGSGSGQDYTLTISSLQPEDFATYYCLQYDEFPLTFGGGTKVEIK
notes: IgG; vadastuximab VH variant #22 (N61H)
In the case of B5, the binding result is “binds”.

B6: MYT1353 (antibody, V domains shown)
VH: QVQLVQSGAEVKKPGASVKVSCKASGYTFTNYDINWVRQAPGQGLEWIGWIYPGDGSHKYNEKFKAKATLTADTSTSTAYMELRSLRSDDTAVYYCASGYEDAMDYWGQGTTVTVSS
VL: DIQMTQSPSSLSASVGDRVTINCKASQDINSYLSWFQQKPGKAPKTLIYRANRLVDGVPSRFSGSGSGQDYTLTISSLQPEDFATYYCLQYDEFPLTFGGGTKVEIK
notes: IgG; vadastuximab VH variant #19 (T58H)
Regarding B6, the binding result is “binds”.

B7: MYT1350 (antibody, V domains shown)
VH: QVQLVQSGAEVKKPGASVKVSCKASGYTFTNYDINWVRQAPGQGLEWIGWIYPGHGSTKYNEKFKAKATLTADTSTSTAYMELRSLRSDDTAVYYCASGYEDAMDYWGQGTTVTVSS
VL: DIQMTQSPSSLSASVGDRVTINCKASQDINSYLSWFQQKPGKAPKTLIYRANRLVDGVPSRFSGSGSGQDYTLTISSLQPEDFATYYCLQYDEFPLTFGGGTKVEIK
notes: IgG; vadastuximab VH variant #16 (D55H)
Turning to B7, the binding result is listed as “binds”.

B8: MYT1359 (antibody, V domains shown)
VH: QVQLVQSGAEVKKPGASVKVSCKASGYTFTNYDINWVRQAPGQGLEWIGWIYPGDGSTKYNEKHKAKATLTADTSTSTAYMELRSLRSDDTAVYYCASGYEDAMDYWGQGTTVTVSS
VL: DIQMTQSPSSLSASVGDRVTINCKASQDINSYLSWFQQKPGKAPKTLIYRANRLVDGVPSRFSGSGSGQDYTLTISSLQPEDFATYYCLQYDEFPLTFGGGTKVEIK
notes: IgG; vadastuximab VH variant #25 (F64H)
With B8, the binding result is “binds”.

B9: MYT1349 (antibody, V domains shown)
VH: QVQLVQSGAEVKKPGASVKVSCKASGYTFTNYDINWVRQAPGQGLEWIGWIYPHDGSTKYNEKFKAKATLTADTSTSTAYMELRSLRSDDTAVYYCASGYEDAMDYWGQGTTVTVSS
VL: DIQMTQSPSSLSASVGDRVTINCKASQDINSYLSWFQQKPGKAPKTLIYRANRLVDGVPSRFSGSGSGQDYTLTISSLQPEDFATYYCLQYDEFPLTFGGGTKVEIK
notes: IgG; vadastuximab VH variant #15 (G54H)
For B9, the binding result is “binds”.

B10: MYT1339 (antibody, V domains shown)
VH: QVQLVQSGAEVKKPGASVKVSCKASGYTFHNYDINWVRQAPGQGLEWIGWIYPGDGSTKYNEKFKAKATLTADTSTSTAYMELRSLRSDDTAVYYCASGYEDAMDYWGQGTTVTVSS
VL: DIQMTQSPSSLSASVGDRVTINCKASQDINSYLSWFQQKPGKAPKTLIYRANRLVDGVPSRFSGSGSGQDYTLTISSLQPEDFATYYCLQYDEFPLTFGGGTKVEIK
notes: IgG; vadastuximab VH variant #5 (T30H)
On to B10, for which the binding result is “binds”.

B11: MYT1341 (antibody, V domains shown)
VH: QVQLVQSGAEVKKPGASVKVSCKASGYTFTNHDINWVRQAPGQGLEWIGWIYPGDGSTKYNEKFKAKATLTADTSTSTAYMELRSLRSDDTAVYYCASGYEDAMDYWGQGTTVTVSS
VL: DIQMTQSPSSLSASVGDRVTINCKASQDINSYLSWFQQKPGKAPKTLIYRANRLVDGVPSRFSGSGSGQDYTLTISSLQPEDFATYYCLQYDEFPLTFGGGTKVEIK
notes: IgG; vadastuximab VH variant #7 (Y32H)
As to B11, the binding result is listed as “binds”.

B12: MYT1360 (antibody, V domains shown)
VH: QVQLVQSGAEVKKPGASVKVSCKASGYTFTNYDINWVRQAPGQGLEWIGWIYPGDGSTKYNEKFHAKATLTADTSTSTAYMELRSLRSDDTAVYYCASGYEDAMDYWGQGTTVTVSS
VL: DIQMTQSPSSLSASVGDRVTINCKASQDINSYLSWFQQKPGKAPKTLIYRANRLVDGVPSRFSGSGSGQDYTLTISSLQPEDFATYYCLQYDEFPLTFGGGTKVEIK
notes: IgG; vadastuximab VH variant #26 (K65H)
As for B12, the binding result is given as “binds”.

B13: MYT1358 (antibody, V domains shown)
VH: QVQLVQSGAEVKKPGASVKVSCKASGYTFTNYDINWVRQAPGQGLEWIGWIYPGDGSTKYNEHFKAKATLTADTSTSTAYMELRSLRSDDTAVYYCASGYEDAMDYWGQGTTVTVSS
VL: DIQMTQSPSSLSASVGDRVTINCKASQDINSYLSWFQQKPGKAPKTLIYRANRLVDGVPSRFSGSGSGQDYTLTISSLQPEDFATYYCLQYDEFPLTFGGGTKVEIK
notes: IgG; vadastuximab VH variant #24 (K63H)
For B13, the binding result is listed as “binds”.

B14: MYT1355 (antibody, V domains shown)
VH: QVQLVQSGAEVKKPGASVKVSCKASGYTFTNYDINWVRQAPGQGLEWIGWIYPGDGSTKHNEKFKAKATLTADTSTSTAYMELRSLRSDDTAVYYCASGYEDAMDYWGQGTTVTVSS
VL: DIQMTQSPSSLSASVGDRVTINCKASQDINSYLSWFQQKPGKAPKTLIYRANRLVDGVPSRFSGSGSGQDYTLTISSLQPEDFATYYCLQYDEFPLTFGGGTKVEIK
notes: IgG; vadastuximab VH variant #21 (Y60H)
Turning to B14, the binding result is “binds”.

B15: MYT1340 (antibody, V domains shown)
VH: QVQLVQSGAEVKKPGASVKVSCKASGYTFTHYDINWVRQAPGQGLEWIGWIYPGDGSTKYNEKFKAKATLTADTSTSTAYMELRSLRSDDTAVYYCASGYEDAMDYWGQGTTVTVSS
VL: DIQMTQSPSSLSASVGDRVTINCKASQDINSYLSWFQQKPGKAPKTLIYRANRLVDGVPSRFSGSGSGQDYTLTISSLQPEDFATYYCLQYDEFPLTFGGGTKVEIK
notes: IgG; vadastuximab VH variant #6 (N31H)
Consider B15, for which the binding result is given as “binds”.

B16: MYT1348 (antibody, V domains shown)
VH: QVQLVQSGAEVKKPGASVKVSCKASGYTFTNYDINWVRQAPGQGLEWIGWIYHGDGSTKYNEKFKAKATLTADTSTSTAYMELRSLRSDDTAVYYCASGYEDAMDYWGQGTTVTVSS
VL: DIQMTQSPSSLSASVGDRVTINCKASQDINSYLSWFQQKPGKAPKTLIYRANRLVDGVPSRFSGSGSGQDYTLTISSLQPEDFATYYCLQYDEFPLTFGGGTKVEIK
notes: IgG; vadastuximab VH variant #14 (P53H)
Turning to B16, the binding result is reported as “binds”.

B17: MYT1354 (antibody, V domains shown)
VH: QVQLVQSGAEVKKPGASVKVSCKASGYTFTNYDINWVRQAPGQGLEWIGWIYPGDGSTHYNEKFKAKATLTADTSTSTAYMELRSLRSDDTAVYYCASGYEDAMDYWGQGTTVTVSS
VL: DIQMTQSPSSLSASVGDRVTINCKASQDINSYLSWFQQKPGKAPKTLIYRANRLVDGVPSRFSGSGSGQDYTLTISSLQPEDFATYYCLQYDEFPLTFGGGTKVEIK
notes: IgG; vadastuximab VH variant #20 (K59H)
B17: the binding result is reported as “binds”.

B18: MYT1343 (antibody, V domains shown)
VH: QVQLVQSGAEVKKPGASVKVSCKASGYTFTNYDHNWVRQAPGQGLEWIGWIYPGDGSTKYNEKFKAKATLTADTSTSTAYMELRSLRSDDTAVYYCASGYEDAMDYWGQGTTVTVSS
VL: DIQMTQSPSSLSASVGDRVTINCKASQDINSYLSWFQQKPGKAPKTLIYRANRLVDGVPSRFSGSGSGQDYTLTISSLQPEDFATYYCLQYDEFPLTFGGGTKVEIK
notes: IgG; vadastuximab VH variant #9 (I34H)
Consider B18, for which the binding result was “binds”.

B19: MYT1357 (antibody, V domains shown)
VH: QVQLVQSGAEVKKPGASVKVSCKASGYTFTNYDINWVRQAPGQGLEWIGWIYPGDGSTKYNHKFKAKATLTADTSTSTAYMELRSLRSDDTAVYYCASGYEDAMDYWGQGTTVTVSS
VL: DIQMTQSPSSLSASVGDRVTINCKASQDINSYLSWFQQKPGKAPKTLIYRANRLVDGVPSRFSGSGSGQDYTLTISSLQPEDFATYYCLQYDEFPLTFGGGTKVEIK
notes: IgG; vadastuximab VH variant #23 (E62H)
Take B19: the binding result is listed as “binds”.

B20: MYT1346 (antibody, V domains shown)
VH: QVQLVQSGAEVKKPGASVKVSCKASGYTFTNYDINWVRQAPGQGLEWIGWHYPGDGSTKYNEKFKAKATLTADTSTSTAYMELRSLRSDDTAVYYCASGYEDAMDYWGQGTTVTVSS
VL: DIQMTQSPSSLSASVGDRVTINCKASQDINSYLSWFQQKPGKAPKTLIYRANRLVDGVPSRFSGSGSGQDYTLTISSLQPEDFATYYCLQYDEFPLTFGGGTKVEIK
notes: IgG; vadastuximab VH variant #12 (I51H)
For the molecule B20, the binding result was “binds”.

B21: MYT1347 (antibody, V domains shown)
VH: QVQLVQSGAEVKKPGASVKVSCKASGYTFTNYDINWVRQAPGQGLEWIGWIHPGDGSTKYNEKFKAKATLTADTSTSTAYMELRSLRSDDTAVYYCASGYEDAMDYWGQGTTVTVSS
VL: DIQMTQSPSSLSASVGDRVTINCKASQDINSYLSWFQQKPGKAPKTLIYRANRLVDGVPSRFSGSGSGQDYTLTISSLQPEDFATYYCLQYDEFPLTFGGGTKVEIK
notes: IgG; vadastuximab VH variant #13 (Y52H)
On to B21, for which the binding result is “binds”.
